Measured values: paper PMC9868417, “Functional characterization of a novel aminoglycoside phosphotransferase, APH(9)-Ic, and its variant from Stenotrophomonas maltophilia” (Frontiers in Cellular and Infection Microbiology, 2023)

System: CN[C@@H]1[C@H](O)[C@H](NC)[C@H]2O[C@@]3(O)C(=O)C[C@@H](C)O[C@H]3O[C@@H]2[C@H]1O
Assay: purified protein
Format: biochemical, Stenotrophomonas maltophilia
Settings: 2 mM ATP, 10 mM MgCl2, 20 mM KCl, 100 mM HEPES pH 7.0, 37 °C

Substance: APH(9)-Ic (Stenotrophomonas maltophilia K279a)
- Km: 31 ± 5 µM
- kcat: 1.09 ± 0.09 s⁻¹
